Article PMC2907309

Biological target: MazF (E. coli) (UniProt P0AE70)
Sequence of UniProt P0AE70 (P0AE70 whole entry): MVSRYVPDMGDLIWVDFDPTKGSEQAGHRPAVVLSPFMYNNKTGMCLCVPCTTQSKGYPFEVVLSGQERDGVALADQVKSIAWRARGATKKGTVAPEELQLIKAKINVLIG

“His-MazE (from UniProt P0AE72 1-82) (natural protein)” was tested. Which recovery of Luc production (end-point) in a cell-free reaction made of MazF crude extract, against the concentration of pure MazE added did it give?
Its recovery of Luc production (end-point) in a cell-free reaction made of MazF crude extract, against the concentration of pure MazE added is 0.6 µM.

And the recovery of deGFP production (end-point) in a cell-free reaction made of MazF crude extract, against the concentration of pure MazE added?
The recovery of deGFP production (end-point) in a cell-free reaction made of MazF crude extract, against the concentration of pure MazE added was 0.4 µM.
